# In publication doi:10.1101/2023.04.15.537002, “Identification of merozoite secreted repertoire and immuno-pharmacological inhibition of a novel host-parasite interaction to block malarial infection” (bioRxiv, 2023):
# T1: recombinant PfRhopH3 C-terminal fragment (PfRhopH3C; 617-865 aa) (Plasmodium falciparum, UniProt Q8I395 617-865)
# T1 construct: RhopH3 (high molecular weight rhoptry protein 3) of Plasmodium falciparum, C-terminal portion, residues 617-865 (747 bp); also called rPfRhopH3C; rRhopH3C; source: recombinant, codon-optimized gene in pMTSAra, induced by L-arabinose, purified (Ni-NTA)
# T1 sequence: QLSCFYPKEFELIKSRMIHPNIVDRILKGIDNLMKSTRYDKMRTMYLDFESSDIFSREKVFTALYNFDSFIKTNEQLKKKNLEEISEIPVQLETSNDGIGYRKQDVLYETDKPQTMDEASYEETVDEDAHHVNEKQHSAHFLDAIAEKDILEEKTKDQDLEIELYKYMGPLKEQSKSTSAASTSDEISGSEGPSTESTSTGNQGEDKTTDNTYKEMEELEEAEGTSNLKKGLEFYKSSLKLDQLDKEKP
# B1: recombinant 14-3-3[…] Target Binding Domain (TBD; 94-246 aa) (domain or fragment, human, UniProt Q04917 94-246, looked up)
# chain: ETVCNDVLSLLDKFLIKNCNDFQYESKVFYLKMKGDYYRYLAEVASGEKKNSVVEASEAAYKEAFEISKEQMQPTHPIRLGLALNFSVFYYEIQNAPEQACLLAKQAFDDAIAELDTLNEDSYKDSTLIMQLLRDNLTLWTSDQQDEEAGEGN
# notes: also called 14-3-3[…] TBD; source: recombinant, PCR-amplified into pMTSAra, induced by L-arabinose, purified (Ni-NTA)
# B2: recombinant human 14-3-3[…] (eta), full length (246 aa) (natural protein, UniProt Q04917 1-246, looked up)
# chain: MGDREQLLQRARLAEQAERYDDMASAMKAVTELNEPLSNEDRNLLSVAYKNVVGARRSSWRVISSIEQKTMADGNEKKLEKVKAYREKIEKELETVCNDVLSLLDKFLIKNCNDFQYESKVFYLKMKGDYYRYLAEVASGEKKNSVVEASEAAYKEAFEISKEQMQPTHPIRLGLALNFSVFYYEIQNAPEQACLLAKQAFDDAIAELDTLNEDSYKDSTLIMQLLRDNLTLWTSDQQDEEAGEGN
# modifications: labelled with amine-reactive dye NT-647 NHS (for MST only)
# notes: human 14-3-3 protein eta, gene ID YWHAH, full length, 246 aa (738 bp); the discussion names it eta; also called 14-3-3[…] full length; r14-3-3[…]; source: recombinant, codon-optimized gene in pET-28a(+), induced by IPTG, purified (Ni-NTA)
# Key:
# [1] = biological target: T1, recombinant PfRhopH3 C-terminal …; assay: ELISA; PfRhopH3C (200 ng) coated overnight; overlaid with 14-3-3[…] TBD or full length; detected with anti-14-3-3[…] antibodies, O.D.450; conditions: both partners purified
# [2] = biological target: T1, recombinant PfRhopH3 C-terminal …; assay: MST; 14-3-3[…] (10 uM) labelled with NT-647 NHS, titrated with different concentrations of PfRhopH3C; conditions: both partners purified
Binder,binding result [1],Kd [2]
B1,binds,–
B2,–,66 nM
